From US20220010021A1 (Sanofi, published 2022)

T1: beta-Klotho (KLB) (Homo sapiens (Human), UniProt Q86Z14 1-996)
T1 construct: also called β-Klotho; not shown: C-terminal His tag of the bought R&D Systems protein
T1 sequence: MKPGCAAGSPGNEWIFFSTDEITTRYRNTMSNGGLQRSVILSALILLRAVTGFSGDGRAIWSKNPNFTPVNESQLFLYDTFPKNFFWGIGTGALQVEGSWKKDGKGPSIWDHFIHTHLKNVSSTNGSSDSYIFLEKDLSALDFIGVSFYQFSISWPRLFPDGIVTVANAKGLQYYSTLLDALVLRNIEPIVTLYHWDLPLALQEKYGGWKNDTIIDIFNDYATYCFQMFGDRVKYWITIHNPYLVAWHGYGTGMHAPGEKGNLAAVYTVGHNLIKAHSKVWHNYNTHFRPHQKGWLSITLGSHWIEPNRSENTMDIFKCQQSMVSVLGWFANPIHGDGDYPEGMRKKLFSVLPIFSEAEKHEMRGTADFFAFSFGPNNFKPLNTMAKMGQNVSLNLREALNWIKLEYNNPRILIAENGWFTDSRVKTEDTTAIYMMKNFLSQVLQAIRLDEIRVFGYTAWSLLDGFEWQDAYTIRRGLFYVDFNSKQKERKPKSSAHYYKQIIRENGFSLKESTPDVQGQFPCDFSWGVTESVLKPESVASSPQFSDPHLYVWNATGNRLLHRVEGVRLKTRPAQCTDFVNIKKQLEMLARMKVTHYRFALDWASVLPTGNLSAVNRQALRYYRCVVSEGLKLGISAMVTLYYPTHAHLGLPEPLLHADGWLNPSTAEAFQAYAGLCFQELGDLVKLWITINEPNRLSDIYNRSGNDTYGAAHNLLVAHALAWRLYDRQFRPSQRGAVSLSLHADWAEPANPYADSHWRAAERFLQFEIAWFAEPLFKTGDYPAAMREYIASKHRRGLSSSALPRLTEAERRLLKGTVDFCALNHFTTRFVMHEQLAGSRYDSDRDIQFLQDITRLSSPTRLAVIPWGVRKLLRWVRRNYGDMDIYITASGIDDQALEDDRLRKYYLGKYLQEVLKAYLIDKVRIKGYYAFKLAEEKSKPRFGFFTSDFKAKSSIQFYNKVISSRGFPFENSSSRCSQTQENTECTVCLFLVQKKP


Key:
[1] = biological target: cell surface receptor composed of the tyrosine kinase receptor FGFR1c and co-receptor beta-Klotho (KLB) (human, UniProt P11362 22-822; Q86Z14 1-1044); test: cell-based or functional assay
[2] = biological target: T1, beta-Klotho (KLB); test: BLI (Octet) off-rate screening, mAb from supernatant on anti-hIgG Fc sensor, 5 nmol/L KLB;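 further: dissociation followed for 1800 s in D-PBS plus 0.1% BSA, antibody supernatants applied at 25 µg/mL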

cell surface receptor composed of the tyrosine kinase receptor FGFR1c and co-receptor beta-Klotho (KLB), sequence (P11362 22-822, one chain of several): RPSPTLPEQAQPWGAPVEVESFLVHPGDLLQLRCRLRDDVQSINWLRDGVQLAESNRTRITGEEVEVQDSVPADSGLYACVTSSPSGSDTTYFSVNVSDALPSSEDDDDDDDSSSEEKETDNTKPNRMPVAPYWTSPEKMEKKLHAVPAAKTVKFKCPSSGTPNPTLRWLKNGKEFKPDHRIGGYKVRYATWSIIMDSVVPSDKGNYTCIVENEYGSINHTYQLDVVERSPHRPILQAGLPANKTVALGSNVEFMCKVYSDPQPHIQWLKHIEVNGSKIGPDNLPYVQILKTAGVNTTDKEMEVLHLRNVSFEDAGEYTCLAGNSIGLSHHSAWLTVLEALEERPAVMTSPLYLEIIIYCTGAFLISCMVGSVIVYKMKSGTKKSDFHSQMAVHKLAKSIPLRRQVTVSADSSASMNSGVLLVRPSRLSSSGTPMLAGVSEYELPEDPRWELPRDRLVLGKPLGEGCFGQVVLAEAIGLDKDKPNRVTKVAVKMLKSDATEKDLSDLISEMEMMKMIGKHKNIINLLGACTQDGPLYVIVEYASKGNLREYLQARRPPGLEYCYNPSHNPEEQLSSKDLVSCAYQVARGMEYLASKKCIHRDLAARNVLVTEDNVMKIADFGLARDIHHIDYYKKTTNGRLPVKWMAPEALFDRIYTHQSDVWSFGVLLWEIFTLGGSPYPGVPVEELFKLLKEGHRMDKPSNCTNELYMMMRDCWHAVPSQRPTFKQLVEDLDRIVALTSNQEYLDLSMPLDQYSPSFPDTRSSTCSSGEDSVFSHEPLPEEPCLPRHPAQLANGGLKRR

Row | Binder | Mean E max, Luciferase gene reporter assay [1] | Mean EC50, Luciferase gene reporter assay [1] | koff [2]
1 | 16H7 variant with light chain substitution H96S (antibody, human IgG4 S228P, lambda, V domains shown, IgG4 backbone was used) VH: not shown VL: SYVLTQPPSVSVAPGQTARITCGGNNIGSESVHWYQQKPGQAPVLVVYDDSDRPSGIPERFSGSNSGNTATLTISRVEAGDEADYYCQVWDGNSDSVVFGGGTKLTVLG | 102% | 0.097 nM | 3e-05 s⁻¹
2 | 16H7 variant with light chain substitution H96T (antibody, human IgG4 S228P, lambda, V domains shown, IgG4 backbone was used) VH: not shown VL: SYVLTQPPSVSVAPGQTARITCGGNNIGSESVHWYQQKPGQAPVLVVYDDSDRPSGIPERFSGSNSGNTATLTISRVEAGDEADYYCQVWDGNSDTVVFGGGTKLTVLG | 110% | 0.11 nM | 1.8e-05 s⁻¹
3 | 16H7 variant with light chain substitution H96V (antibody, human IgG4 S228P, lambda, V domains shown, IgG4 backbone was used) VH: not shown VL: SYVLTQPPSVSVAPGQTARITCGGNNIGSESVHWYQQKPGQAPVLVVYDDSDRPSGIPERFSGSNSGNTATLTISRVEAGDEADYYCQVWDGNSDVVVFGGGTKLTVLG | 91% | 0.13 nM | 4.1e-05 s⁻¹
4 | 16H7 variant with light chain substitution H96W (antibody, human IgG4 S228P, lambda, V domains shown, IgG4 backbone was used) VH: not shown VL: SYVLTQPPSVSVAPGQTARITCGGNNIGSESVHWYQQKPGQAPVLVVYDDSDRPSGIPERFSGSNSGNTATLTISRVEAGDEADYYCQVWDGNSDWVVFGGGTKLTVLG | 103% | 0.155 nM | 0.00012 s⁻¹
5 | 16H7 variant with light chain substitution H96Y (antibody, human IgG4 S228P, lambda, V domains shown, IgG4 backbone was used) VH: not shown VL: SYVLTQPPSVSVAPGQTARITCGGNNIGSESVHWYQQKPGQAPVLVVYDDSDRPSGIPERFSGSNSGNTATLTISRVEAGDEADYYCQVWDGNSDYVVFGGGTKLTVLG | 103% | 0.134 nM | 6.9e-05 s⁻¹
6 | 16H7 variant with light chain substitution N93A (antibody, human IgG4 S228P, lambda, V domains shown, IgG4 backbone was used) VH: not shown VL: SYVLTQPPSVSVAPGQTARITCGGNNIGSESVHWYQQKPGQAPVLVVYDDSDRPSGIPERFSGSNSGNTATLTISRVEAGDEADYYCQVWDGASDHVVFGGGTKLTVLG | 101% | 0.108 nM | 7.5e-06 s⁻¹
7 | 16H7 variant with light chain substitution N93C (antibody, human IgG4 S228P, lambda, V domains shown, IgG4 backbone was used) VH: not shown VL: SYVLTQPPSVSVAPGQTARITCGGNNIGSESVHWYQQKPGQAPVLVVYDDSDRPSGIPERFSGSNSGNTATLTISRVEAGDEADYYCQVWDGCSDHVVFGGGTKLTVLG | 107% | 0.148 nM | 5.8e-05 s⁻¹
8 | 16H7 variant with light chain substitution N93D (antibody, human IgG4 S228P, lambda, V domains shown, IgG4 backbone was used) VH: not shown VL: SYVLTQPPSVSVAPGQTARITCGGNNIGSESVHWYQQKPGQAPVLVVYDDSDRPSGIPERFSGSNSGNTATLTISRVEAGDEADYYCQVWDGDSDHVVFGGGTKLTVLG | 108% | 0.123 nM | 3.8e-05 s⁻¹
9 | 16H7 variant with light chain substitution N93F (antibody, human IgG4 S228P, lambda, V domains shown, IgG4 backbone was used) VH: not shown VL: SYVLTQPPSVSVAPGQTARITCGGNNIGSESVHWYQQKPGQAPVLVVYDDSDRPSGIPERFSGSNSGNTATLTISRVEAGDEADYYCQVWDGFSDHVVFGGGTKLTVLG | 100% | 0.165 nM | 2.2e-06 s⁻¹
10 | 16H7 variant with light chain substitution N93R (antibody, human IgG4 S228P, lambda, V domains shown, IgG4 backbone was used) VH: not shown VL: SYVLTQPPSVSVAPGQTARITCGGNNIGSESVHWYQQKPGQAPVLVVYDDSDRPSGIPERFSGSNSGNTATLTISRVEAGDEADYYCQVWDGRSDHVVFGGGTKLTVLG | 100% | 0.186 nM | 5e-05 s⁻¹
11 | 16H7 variant with light chain substitution N93S (antibody, human IgG4 S228P, lambda, V domains shown, IgG4 backbone was used) VH: not shown VL: SYVLTQPPSVSVAPGQTARITCGGNNIGSESVHWYQQKPGQAPVLVVYDDSDRPSGIPERFSGSNSGNTATLTISRVEAGDEADYYCQVWDGSSDHVVFGGGTKLTVLG | 101% | 0.105 nM | 3.4e-05 s⁻¹
12 | 16H7 variant with light chain substitution N93T (antibody, human IgG4 S228P, lambda, V domains shown, IgG4 backbone was used) VH: not shown VL: SYVLTQPPSVSVAPGQTARITCGGNNIGSESVHWYQQKPGQAPVLVVYDDSDRPSGIPERFSGSNSGNTATLTISRVEAGDEADYYCQVWDGTSDHVVFGGGTKLTVLG | 103% | 0.161 nM | 3.1e-05 s⁻¹
13 | 16H7 variant with light chain substitution N93V (antibody, human IgG4 S228P, lambda, V domains shown, IgG4 backbone was used) VH: not shown VL: SYVLTQPPSVSVAPGQTARITCGGNNIGSESVHWYQQKPGQAPVLVVYDDSDRPSGIPERFSGSNSGNTATLTISRVEAGDEADYYCQVWDGVSDHVVFGGGTKLTVLG | 108% | 0.139 nM | 4e-05 s⁻¹
14 | 16H7 variant with light chain substitution N93Y (antibody, human IgG4 S228P, lambda, V domains shown, IgG4 backbone was used) VH: not shown VL: SYVLTQPPSVSVAPGQTARITCGGNNIGSESVHWYQQKPGQAPVLVVYDDSDRPSGIPERFSGSNSGNTATLTISRVEAGDEADYYCQVWDGYSDHVVFGGGTKLTVLG | 105% | 0.108 nM | 6.5e-05 s⁻¹
15 | 16H7 variant with light chain substitution S94A (antibody, human IgG4 S228P, lambda, V domains shown, IgG4 backbone was used) VH: not shown VL: SYVLTQPPSVSVAPGQTARITCGGNNIGSESVHWYQQKPGQAPVLVVYDDSDRPSGIPERFSGSNSGNTATLTISRVEAGDEADYYCQVWDGNADHVVFGGGTKLTVLG | 99% | 0.107 nM | 4.6e-05 s⁻¹
16 | 16H7 variant with light chain substitution S94C (antibody, human IgG4 S228P, lambda, V domains shown, IgG4 backbone was used) VH: not shown VL: SYVLTQPPSVSVAPGQTARITCGGNNIGSESVHWYQQKPGQAPVLVVYDDSDRPSGIPERFSGSNSGNTATLTISRVEAGDEADYYCQVWDGNCDHVVFGGGTKLTVLG | 99% | 0.138 nM | 1e-07 s⁻¹
17 | 16H7 variant with light chain substitution S94D (antibody, human IgG4 S228P, lambda, V domains shown, IgG4 backbone was used) VH: not shown VL: SYVLTQPPSVSVAPGQTARITCGGNNIGSESVHWYQQKPGQAPVLVVYDDSDRPSGIPERFSGSNSGNTATLTISRVEAGDEADYYCQVWDGNDDHVVFGGGTKLTVLG | 103% | 0.122 nM | 3.4e-05 s⁻¹
18 | 16H7 variant with light chain substitution S94E (antibody, human IgG4 S228P, lambda, V domains shown, IgG4 backbone was used) VH: not shown VL: SYVLTQPPSVSVAPGQTARITCGGNNIGSESVHWYQQKPGQAPVLVVYDDSDRPSGIPERFSGSNSGNTATLTISRVEAGDEADYYCQVWDGNEDHVVFGGGTKLTVLG | 100% | 0.122 nM | 1.4e-05 s⁻¹
19 | 16H7 variant with light chain substitution S94F (antibody, human IgG4 S228P, lambda, V domains shown, IgG4 backbone was used) VH: not shown VL: SYVLTQPPSVSVAPGQTARITCGGNNIGSESVHWYQQKPGQAPVLVVYDDSDRPSGIPERFSGSNSGNTATLTISRVEAGDEADYYCQVWDGNFDHVVFGGGTKLTVLG | 100% | 0.132 nM | 1e-07 s⁻¹
20 | 16H7 variant with light chain substitution S94I (antibody, human IgG4 S228P, lambda, V domains shown, IgG4 backbone was used) VH: not shown VL: SYVLTQPPSVSVAPGQTARITCGGNNIGSESVHWYQQKPGQAPVLVVYDDSDRPSGIPERFSGSNSGNTATLTISRVEAGDEADYYCQVWDGNIDHVVFGGGTKLTVLG | 106% | 0.126 nM | 4.3e-05 s⁻¹
21 | 16H7 variant with light chain substitution S94L (antibody, human IgG4 S228P, lambda, V domains shown, IgG4 backbone was used) VH: not shown VL: SYVLTQPPSVSVAPGQTARITCGGNNIGSESVHWYQQKPGQAPVLVVYDDSDRPSGIPERFSGSNSGNTATLTISRVEAGDEADYYCQVWDGNLDHVVFGGGTKLTVLG | 103% | 0.169 nM | 4.4e-05 s⁻¹
22 | 16H7 variant with light chain substitution S94M (antibody, human IgG4 S228P, lambda, V domains shown, IgG4 backbone was used) VH: not shown VL: SYVLTQPPSVSVAPGQTARITCGGNNIGSESVHWYQQKPGQAPVLVVYDDSDRPSGIPERFSGSNSGNTATLTISRVEAGDEADYYCQVWDGNMDHVVFGGGTKLTVLG | 101% | 0.117 nM | 1.2e-05 s⁻¹
23 | 16H7 variant with light chain substitution S94N (antibody, human IgG4 S228P, lambda, V domains shown, IgG4 backbone was used) VH: not shown VL: SYVLTQPPSVSVAPGQTARITCGGNNIGSESVHWYQQKPGQAPVLVVYDDSDRPSGIPERFSGSNSGNTATLTISRVEAGDEADYYCQVWDGNNDHVVFGGGTKLTVLG | 103% | 0.133 nM | 3.3e-05 s⁻¹
